This is an account of results in PMC5405867.

The target of experiment [1] is ISG15 (Mus musculus) (UniProt Q64339). In words: microscale thermophoresis. To be noted: cited from earlier work.
In experiment [2] the target is murine USP18^IBB-1-USP7, His6-tagged (mouse) (UniProt Q9WTV6).

ISG15 (Mus musculus), sequence (Q64339 1-155): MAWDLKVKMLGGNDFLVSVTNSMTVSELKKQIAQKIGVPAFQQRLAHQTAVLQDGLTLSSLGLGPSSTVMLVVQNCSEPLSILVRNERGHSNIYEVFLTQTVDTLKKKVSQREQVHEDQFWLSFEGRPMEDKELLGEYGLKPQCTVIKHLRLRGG

As to USP18 (from UniProt Q9WTV6), in experiment [1], the Kd is 1.3 µM.

In experiment [2], “mouse ISG15 (residues 1-155, C76S) (from UniProt Q64339 1-155) (natural protein)” showed a catalytic activity towards ISG15-FP, percent of wild type (% of wt activity) of 0.5.

By Kd is commonly meant the free concentration of one partner at which half of the binding sites on the other are occupied at equilibrium, for simple one-to-one binding.
